Measurements reported in patent US20180092966A1 (CSL, published 2018).
Each block holds one molecule with its values, some of them ahead of it.

Columns and labels:
[1] = target: VWF-FP (albumin-fused von Willebrand Factor) (human); assay: covalent-FVIII ELISA over FVIII activity assay
[2] = target: VWF-FP (albumin-fused von Willebrand Factor) (human); assay: covalent-FVIII ELISA over FVIII antigen ELISA
[3] = target: T1, VWF-FP H817C mutant (albumin-fused von Willebrand Factor) (human); assay: covalent-FVIII ELISA over FVIII activity assay
T1 construct: Stably expressed in CHO cells with furin co-transfected; also called VWF-FP mutant H817C; Cys residue at VWF aa position 817; not shown: linker between VWF and albumin, made in analogy to WO 2009/156137

[4] = target: T1, VWF-FP H817C mutant (albumin-fused von …); assay: ELISA of co-expression supernatant: anti-VWF capture, 350 mM CaCl2 wash, anti-FVIII detection
Method: Cell culture supernatant samples (10 ml) from transient transfections were concentrated with Amicon Ultracell-30K (Millipore UFC903024; 3000 g centrifugation). FVIII covalently attached to VWF-FP in culture supernatant (concentrates) was determined by a standard ELISA. Briefly, microplates were incubated with 100 μL per well of the capture antibody (rabbit anti human VWF-IgG, Dako A0082 [Dako, Hamburg, Germany], diluted 1:2000 in buffer A [Sigma C3041, Sigma-Aldrich, Munich, Germany]) overnight at ambient temperature. After washing plates three times with buffer B (Sigma T9039), each well was incubated with 200 μL buffer C (Sigma T6789) for 1.5 hours at ambient temperature (blocking). After another three wash steps with buffer B, serial dilutions of the test sample in buffer B as well as serial dilutions of a control preparation of covalently linked FVIII-VWF-FP, (2.0-0.03 arbitrary U/ml in buffer B (we call these “arbitrary units” as they may not correspond to the standard FVIII units as determined using Standard Human Plasma); volumes per well: 100 μL) were incubated for 1.5 hours at ambient temperature. After three wash steps with buffer B, 200 μL of 350 mM CaCl₂ were added to each well and incubated for 1 hour at ambient temperature. CaCl₂ was removed (without washing) and additional 200 μl were added to each well and incubated further for 1 hour. After three wash steps with buffer B 100 μL of a 1:2 dilution in buffer B of the detection antibody (Detecting Antibody for FVIII:C, peroxidase labelled, Cedarlane CL20035K-D) were added to each well and incubated for 1 hour at ambient temperature. After three wash steps with buffer B, 100 μL of substrate solution (OUVF, Siemens Healthcare Diagnostics) were added per well and incubated for 15 minutes at ambient temperature in the dark. Addition of 100 μL undiluted stop dilution (OSFA, Siemens Healthcare Diagnostics) prepared the samples for reading in a suitable microplate reader at 450 nm wavelength. Concentrations of the test samples were then calculated using the standard curve with the control preparation.

[5] = target: T1, VWF-FP H817C mutant (albumin-fused von …); assay: covalent-FVIII ELISA over FVIII antigen ELISA

T1 sequence (chain, as listed by the source H817C H817C): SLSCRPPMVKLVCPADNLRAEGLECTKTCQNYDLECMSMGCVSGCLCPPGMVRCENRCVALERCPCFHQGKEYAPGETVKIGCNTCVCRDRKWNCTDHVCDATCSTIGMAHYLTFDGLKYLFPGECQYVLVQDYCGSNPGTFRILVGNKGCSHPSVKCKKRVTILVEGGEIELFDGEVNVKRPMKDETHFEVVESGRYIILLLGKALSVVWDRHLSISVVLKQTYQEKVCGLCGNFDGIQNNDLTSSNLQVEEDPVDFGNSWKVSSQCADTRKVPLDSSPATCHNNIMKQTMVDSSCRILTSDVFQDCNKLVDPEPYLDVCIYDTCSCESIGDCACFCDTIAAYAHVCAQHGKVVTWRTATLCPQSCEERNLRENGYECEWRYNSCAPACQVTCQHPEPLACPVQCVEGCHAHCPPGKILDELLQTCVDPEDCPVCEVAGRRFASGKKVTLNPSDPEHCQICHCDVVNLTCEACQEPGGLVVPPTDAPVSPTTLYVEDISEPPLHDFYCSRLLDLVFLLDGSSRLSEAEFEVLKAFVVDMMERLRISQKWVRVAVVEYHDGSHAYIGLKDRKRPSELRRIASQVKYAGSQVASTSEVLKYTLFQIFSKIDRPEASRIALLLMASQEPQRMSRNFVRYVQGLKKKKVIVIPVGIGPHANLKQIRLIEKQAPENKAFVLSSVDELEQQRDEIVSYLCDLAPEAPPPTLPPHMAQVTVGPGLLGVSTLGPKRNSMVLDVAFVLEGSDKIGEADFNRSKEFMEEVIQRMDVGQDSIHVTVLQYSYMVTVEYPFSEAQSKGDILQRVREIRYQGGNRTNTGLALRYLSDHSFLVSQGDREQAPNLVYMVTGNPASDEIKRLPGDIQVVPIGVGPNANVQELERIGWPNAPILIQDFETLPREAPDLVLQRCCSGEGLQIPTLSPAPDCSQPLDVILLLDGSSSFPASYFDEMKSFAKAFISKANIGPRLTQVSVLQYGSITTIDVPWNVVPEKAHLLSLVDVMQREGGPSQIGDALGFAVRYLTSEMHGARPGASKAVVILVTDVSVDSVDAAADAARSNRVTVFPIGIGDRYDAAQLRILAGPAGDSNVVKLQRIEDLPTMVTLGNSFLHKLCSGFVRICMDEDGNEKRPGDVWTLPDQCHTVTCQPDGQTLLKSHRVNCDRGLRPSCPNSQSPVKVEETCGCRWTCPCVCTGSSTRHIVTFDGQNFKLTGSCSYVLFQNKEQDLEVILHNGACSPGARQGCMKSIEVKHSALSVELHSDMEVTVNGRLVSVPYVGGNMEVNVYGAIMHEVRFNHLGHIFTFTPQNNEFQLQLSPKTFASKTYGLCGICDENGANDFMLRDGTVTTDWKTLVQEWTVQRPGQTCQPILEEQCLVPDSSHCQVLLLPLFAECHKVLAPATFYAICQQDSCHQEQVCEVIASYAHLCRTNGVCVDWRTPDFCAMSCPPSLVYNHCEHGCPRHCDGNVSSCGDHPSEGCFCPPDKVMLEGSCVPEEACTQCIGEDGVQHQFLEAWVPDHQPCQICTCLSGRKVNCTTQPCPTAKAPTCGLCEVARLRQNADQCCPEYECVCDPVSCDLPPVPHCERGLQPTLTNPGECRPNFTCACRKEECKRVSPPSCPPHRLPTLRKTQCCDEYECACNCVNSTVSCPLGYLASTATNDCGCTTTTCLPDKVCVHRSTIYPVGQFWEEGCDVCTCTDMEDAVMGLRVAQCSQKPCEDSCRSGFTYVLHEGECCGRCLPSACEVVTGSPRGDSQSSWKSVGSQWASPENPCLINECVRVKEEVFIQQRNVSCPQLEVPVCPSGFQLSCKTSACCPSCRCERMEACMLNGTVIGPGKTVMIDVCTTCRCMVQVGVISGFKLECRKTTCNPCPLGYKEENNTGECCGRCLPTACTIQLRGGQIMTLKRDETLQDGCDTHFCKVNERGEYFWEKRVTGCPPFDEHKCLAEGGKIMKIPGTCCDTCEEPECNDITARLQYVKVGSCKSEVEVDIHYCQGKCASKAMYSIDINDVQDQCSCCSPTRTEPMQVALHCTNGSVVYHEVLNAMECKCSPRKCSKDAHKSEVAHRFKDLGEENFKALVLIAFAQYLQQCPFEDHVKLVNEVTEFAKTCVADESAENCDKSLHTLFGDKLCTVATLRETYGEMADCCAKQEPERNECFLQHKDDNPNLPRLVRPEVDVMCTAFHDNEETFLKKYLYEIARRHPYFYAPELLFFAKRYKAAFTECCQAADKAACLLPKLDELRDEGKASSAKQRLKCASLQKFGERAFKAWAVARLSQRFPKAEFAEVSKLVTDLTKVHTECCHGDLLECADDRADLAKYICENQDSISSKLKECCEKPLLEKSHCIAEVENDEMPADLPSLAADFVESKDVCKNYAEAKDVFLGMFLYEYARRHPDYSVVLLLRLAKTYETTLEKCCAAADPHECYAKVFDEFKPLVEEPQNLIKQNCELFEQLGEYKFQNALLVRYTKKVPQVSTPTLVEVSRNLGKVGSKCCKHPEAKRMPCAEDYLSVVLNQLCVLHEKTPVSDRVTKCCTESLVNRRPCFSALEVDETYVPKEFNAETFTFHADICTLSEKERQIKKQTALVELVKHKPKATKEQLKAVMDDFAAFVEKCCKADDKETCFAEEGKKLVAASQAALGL
VWF-FP (albumin-fused von Willebrand Factor) (human), sequence (chain, as listed by the source): as the sequence (chain, as listed by the source H817C H817C) above, with C54H counted along it

ratio of covalent FVIII to total FVIII activity [1]: 5.78 | ratio of covalent FVIII to total FVIII antigen [2]: 7.47
Molecule: FVIII-SingleChain with VWF-derived C3-C4-C5-C6-CK sequence added to its C-terminus and a thrombin cleavage site between them

ratio covalent FVIII/Total FVIII activity [3]: 1.02 | covalent FVIII [4]: 292 amU/ml | ratio covalent FVIII/Total FVIII antigen [5]: 0.33
B1: Factor VIII SingleChain N2129C mutant (other)
chain: ATRRYYLGAVELSWDYMQSDLGELPVDARFPPRVPKSFPFNTSVVYKKTLFVEFTDHLFNIAKPRPPWMGLLGPTIQAEVYDTVVITLKNMASHPVSLHAVGVSYWKASEGAEYDDQTSQREKEDDKVFPGGSHTYVWQVLKENGPMASDPLCLTYSYLSHVDLVKDLNSGLIGALLVCREGSLAKEKTQTLHKFILLFAVFDEGKSWHSETKNSLMQDRDAASARAWPKMHTVNGYVNRSLPGLIGCHRKSVYWHVIGMGTTPEVHSIFLEGHTFLVRNHRQASLEISPITFLTAQTLLMDLGQFLLFCHISSHQHDGMEAYVKVDSCPEEPQLRMKNNEEAEDYDDDLTDSEMDVVRFDDDNSPSFIQIRSVAKKHPKTWVHYIAAEEEDWDYAPLVLAPDDRSYKSQYLNNGPQRIGRKYKKVRFMAYTDETFKTREAIQHESGILGPLLYGEVGDTLLIIFKNQASRPYNIYPHGITDVRPLYSRRLPKGVKHLKDFPILPGEIFKYKWTVTVEDGPTKSDPRCLTRYYSSFVNMERDLASGLIGPLLICYKESVDQRGNQIMSDKRNVILFSVFDENRSWYLTENIQRFLPNPAGVQLEDPEFQASNIMHSINGYVFDSLQLSVCLHEVAYWYILSIGAQTDFLSVFFSGYTFKHKMVYEDTLTLFPFSGETVFMSMENPGLWILGCHNSDFRNRGMTALLKVSSCDKNTGDYYEDSYEDISAYLLSKNNAIEPRSFSQNSRHRSTRQKQFNATTIPENTTLQSDQEEIDYDDTISVEMKKEDFDIYDEDENQSPRSFQKKTRHYFIAAVERLWDYGMSSSPHVLRNRAQSGSVPQFKKVVFQEFTDGSFTQPLYRGELNEHLGLLGPYIRAEVEDNIMVTFRNQASRPYSFYSSLISYEEDQRQGAEPRKNFVKPNETKTYFWKVQHHMAPTKDEFDCKAWAYFSDVDLEKDVHSGLIGPLLVCHTNTLNPAHGRQVTVQEFALFFTIFDETKSWYFTENMERNCRAPCNIQMEDPTFKENYRFHAINGYIMDTLPGLVMAQDQRIRWYLLSMGSNENIHSIHFSGHVFTVRKKEEYKMALYNLYPGVFETVEMLPSKAGIWRVECLIGEHLHAGMSTLFLVYSNKCQTPLGMASGHIRDFQITASGQYGQWAPKLARLHYSGSINAWSTKEPFSWIKVDLLAPMIIHGIKTQGARQKFSSLYISQFIIMYSLDGKKWQTYRGNSTGTLMVFFGCVDSSGIKHNIFNPPIIARYIRLHPTHYSIRSTLRMELMGCDLNSCSMPLGMESKAISDAQITASSYFTNMFATWSPSKARLHLQGRSNAWRPQVNNPKEWLQVDFQKTMKVTGVTTQGVKSLLTSMYVKEFLISSSQDGHQWTLFFQNGKVKVFQGNQDSFTPVVNSLDPPLLTRYLRIHPQSWVHQIALRMEVLGCEAQDLY
notes: Single-chain FVIII with partial B-domain deletion; also called FVIII-SC N2129C; Cys residue at FVIII aa position 2129
